From patent US20250145711A1 (Janssen / Centocor, published 2025)
One block for each binder: values may come before it.

Experiments:
[1] = biological target: T1, TRCW5 antigen (CD3δε-Fc-Avi) (biotinylated (site not stated)); test: binding after heat
T1 construct: also called recombinant CD3

[2] = biological target: T1, TRCW5 antigen (CD3δε-Fc-Avi); test: ELISA

T1 sequence (chain, as listed by the source mutant limits assumed): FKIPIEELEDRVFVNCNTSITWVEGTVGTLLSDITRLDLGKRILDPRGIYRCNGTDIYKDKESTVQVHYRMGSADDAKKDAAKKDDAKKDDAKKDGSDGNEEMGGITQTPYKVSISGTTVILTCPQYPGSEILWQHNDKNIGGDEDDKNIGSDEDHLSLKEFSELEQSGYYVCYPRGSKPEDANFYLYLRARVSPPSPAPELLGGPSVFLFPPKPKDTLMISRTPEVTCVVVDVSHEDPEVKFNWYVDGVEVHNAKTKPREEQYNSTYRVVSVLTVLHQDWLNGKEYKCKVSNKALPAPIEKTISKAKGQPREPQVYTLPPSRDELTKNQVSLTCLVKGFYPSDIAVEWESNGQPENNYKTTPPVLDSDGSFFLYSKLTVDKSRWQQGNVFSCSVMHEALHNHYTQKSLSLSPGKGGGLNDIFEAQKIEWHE

B1: CD3B2030 N106A (scFv)
scFv: QVQLVQSGAEVKKPGSSVKVSCKASGYTFTRSTMHWVKQAPGQGLEWIGYINPSSAYTNYNQKFQGRVTLTADKSTSTAYMELSSLRSEDTAVYYCASPQVHYDYAGFPYWGQGTLVTVSSGGSEGKSSGSGSESKSTGGSEIVLTQSPATLSASPGERVTLSCSASSSVSYMNWYQQKPGQAPRRWIYDSSKLASGVPARFSGSGSGRDYTLTISSLEPEDFAVYYCQQWSRNPPTFGGGTKVEIK
% Retained 55° C. [1]: 111%
% Retained 60° C. [1]: 103%
% Retained 65° C. [1]: 55.6%
EC50 [2]: 12.8 nM

B2: CD3B2030 N106S (scFv)
scFv: QVQLVQSGAEVKKPGSSVKVSCKASGYTFTRSTMHWVKQAPGQGLEWIGYINPSSAYTNYNQKFQGRVTLTADKSTSTAYMELSSLRSEDTAVYYCASPQVHYDYSGFPYWGQGTLVTVSSGGSEGKSSGSGSESKSTGGSEIVLTQSPATLSASPGERVTLSCSASSSVSYMNWYQQKPGQAPRRWIYDSSKLASGVPARFSGSGSGRDYTLTISSLEPEDFAVYYCQQWSRNPPTFGGGTKVEIK
% Retained 55° C. [1]: 64.6%
% Retained 60° C. [1]: 19%
% Retained 65° C. [1]: 0.6%
EC50 [2]: 19.1 nM

B8: CD3B2030 N106F (scFv)
scFv: QVQLVQSGAEVKKPGSSVKVSCKASGYTFTRSTMHWVKQAPGQGLEWIGYINPSSAYTNYNQKFQGRVTLTADKSTSTAYMELSSLRSEDTAVYYCASPQVHYDYFGFPYWGQGTLVTVSSGGSEGKSSGSGSESKSTGGSEIVLTQSPATLSASPGERVTLSCSASSSVSYMNWYQQKPGQAPRRWIYDSSKLASGVPARFSGSGSGRDYTLTISSLEPEDFAVYYCQQWSRNPPTFGGGTKVEIK
% Retained 55° C. [1]: 106%
% Retained 60° C. [1]: 83.3%
% Retained 65° C. [1]: 21.8%
EC50 [2]: 9.7 nM

B9: CD3B2030 N106K (scFv)
scFv: QVQLVQSGAEVKKPGSSVKVSCKASGYTFTRSTMHWVKQAPGQGLEWIGYINPSSAYTNYNQKFQGRVTLTADKSTSTAYMELSSLRSEDTAVYYCASPQVHYDYKGFPYWGQGTLVTVSSGGSEGKSSGSGSESKSTGGSEIVLTQSPATLSASPGERVTLSCSASSSVSYMNWYQQKPGQAPRRWIYDSSKLASGVPARFSGSGSGRDYTLTISSLEPEDFAVYYCQQWSRNPPTFGGGTKVEIK
% Retained 55° C. [1]: 99.7%
% Retained 60° C. [1]: 87.2%
% Retained 65° C. [1]: 7.3%
EC50 [2]: 11.7 nM

B12: CD3B2030 N106L (scFv)
scFv: QVQLVQSGAEVKKPGSSVKVSCKASGYTFTRSTMHWVKQAPGQGLEWIGYINPSSAYTNYNQKFQGRVTLTADKSTSTAYMELSSLRSEDTAVYYCASPQVHYDYLGFPYWGQGTLVTVSSGGSEGKSSGSGSESKSTGGSEIVLTQSPATLSASPGERVTLSCSASSSVSYMNWYQQKPGQAPRRWIYDSSKLASGVPARFSGSGSGRDYTLTISSLEPEDFAVYYCQQWSRNPPTFGGGTKVEIK
% Retained 55° C. [1]: 107%
% Retained 60° C. [1]: 100%
% Retained 65° C. [1]: 25.6%
EC50 [2]: 11.4 nM

B14: CD3B2030 N106G (scFv)
scFv: QVQLVQSGAEVKKPGSSVKVSCKASGYTFTRSTMHWVKQAPGQGLEWIGYINPSSAYTNYNQKFQGRVTLTADKSTSTAYMELSSLRSEDTAVYYCASPQVHYDYGGFPYWGQGTLVTVSSGGSEGKSSGSGSESKSTGGSEIVLTQSPATLSASPGERVTLSCSASSSVSYMNWYQQKPGQAPRRWIYDSSKLASGVPARFSGSGSGRDYTLTISSLEPEDFAVYYCQQWSRNPPTFGGGTKVEIK
% Retained 55° C. [1]: 115%
% Retained 60° C. [1]: 59.8%
% Retained 65° C. [1]: 1.7%
EC50 [2]: 14.3 nM

B15: CD3B2030 N106H (scFv)
scFv: QVQLVQSGAEVKKPGSSVKVSCKASGYTFTRSTMHWVKQAPGQGLEWIGYINPSSAYTNYNQKFQGRVTLTADKSTSTAYMELSSLRSEDTAVYYCASPQVHYDYHGFPYWGQGTLVTVSSGGSEGKSSGSGSESKSTGGSEIVLTQSPATLSASPGERVTLSCSASSSVSYMNWYQQKPGQAPRRWIYDSSKLASGVPARFSGSGSGRDYTLTISSLEPEDFAVYYCQQWSRNPPTFGGGTKVEIK
% Retained 55° C. [1]: 104%
% Retained 60° C. [1]: 98.9%
% Retained 65° C. [1]: 55.7%
EC50 [2]: 10.6 nM

B18: CD3B2030 N106R (scFv)
scFv: QVQLVQSGAEVKKPGSSVKVSCKASGYTFTRSTMHWVKQAPGQGLEWIGYINPSSAYTNYNQKFQGRVTLTADKSTSTAYMELSSLRSEDTAVYYCASPQVHYDYRGFPYWGQGTLVTVSSGGSEGKSSGSGSESKSTGGSEIVLTQSPATLSASPGERVTLSCSASSSVSYMNWYQQKPGQAPRRWIYDSSKLASGVPARFSGSGSGRDYTLTISSLEPEDFAVYYCQQWSRNPPTFGGGTKVEIK
% Retained 55° C. [1]: 107%
% Retained 60° C. [1]: 104%
% Retained 65° C. [1]: 53.8%
EC50 [2]: 10.6 nM

Further lines, results first:

% Retained 55° C. [1]: 98.9%
% Retained 60° C. [1]: 97%
% Retained 65° C. [1]: 33.3%
EC50 [2]: 12.1 nM
B3: CD3B2051 N106A (scFv)
scFv: QVQLVQSGAEVKKPGSSVKVSCKASGYTFTRSTMHWVKQAPGQGLEWMGYINPSSAYTNYNQKFQGRVTLTADKSTSTAYMELSSLRSEDTAVYYCASPQVHYDYAGFPYWGQGTLVTVSSGGSEGKSSGSGSESKSTGGSEIVLTQSPATLSASPGERVTLSCSASSSVSYMNWYQQKPGQAPRRLIYDSSKLASGVPARFSGSGSGRDYTLTISSLEPEDFAVYYCQQWSRNPPTFGGGTKVEIK

EC50 [2]: ~27.4 nM
B4: CD3B2089 N106P (scFv)
scFv: QVQLVQSGAEVKKPGSSVKVSCKASGYTFTRSTMHWVRQAPGQGLEWMGYINPSSAYTNYAQKFQGRVTLTADKSTSTAYMELSSLRSEDTAVYYCASPQVHYDYPGFPYWGQGTLVTVSSGGSEGKSSGSGSESKSTGGSEIVLTQSPATLSASPGERVTLSCSASSSVSYMNWYQQKPGQAPRRWIYDSSKLASGVPARFSGSGSGRDYTLTISSLEPEDFAVYYCQQWSRNPPTFGGGTKVEIK

EC50 [2]: ~429 nM
B5: CD3B2089 N106G (scFv)
scFv: QVQLVQSGAEVKKPGSSVKVSCKASGYTFTRSTMHWVRQAPGQGLEWMGYINPSSAYTNYAQKFQGRVTLTADKSTSTAYMELSSLRSEDTAVYYCASPQVHYDYGGFPYWGQGTLVTVSSGGSEGKSSGSGSESKSTGGSEIVLTQSPATLSASPGERVTLSCSASSSVSYMNWYQQKPGQAPRRWIYDSSKLASGVPARFSGSGSGRDYTLTISSLEPEDFAVYYCQQWSRNPPTFGGGTKVEIK

% Retained 55° C. [1]: 78.4%
% Retained 60° C. [1]: 15.4%
% Retained 65° C. [1]: 0.5%
EC50 [2]: 8.05 nM
B6: CD3B2051 N106E (scFv)
scFv: QVQLVQSGAEVKKPGSSVKVSCKASGYTFTRSTMHWVKQAPGQGLEWMGYINPSSAYTNYNQKFQGRVTLTADKSTSTAYMELSSLRSEDTAVYYCASPQVHYDYEGFPYWGQGTLVTVSSGGSEGKSSGSGSESKSTGGSEIVLTQSPATLSASPGERVTLSCSASSSVSYMNWYQQKPGQAPRRLIYDSSKLASGVPARFSGSGSGRDYTLTISSLEPEDFAVYYCQQWSRNPPTFGGGTKVEIK

% Retained 55° C. [1]: 116%
% Retained 60° C. [1]: 91.3%
% Retained 65° C. [1]: 4%
EC50 [2]: 11.4 nM
B7: CD3B2051 N106K (scFv)
scFv: QVQLVQSGAEVKKPGSSVKVSCKASGYTFTRSTMHWVKQAPGQGLEWMGYINPSSAYTNYNQKFQGRVTLTADKSTSTAYMELSSLRSEDTAVYYCASPQVHYDYKGFPYWGQGTLVTVSSGGSEGKSSGSGSESKSTGGSEIVLTQSPATLSASPGERVTLSCSASSSVSYMNWYQQKPGQAPRRLIYDSSKLASGVPARFSGSGSGRDYTLTISSLEPEDFAVYYCQQWSRNPPTFGGGTKVEIK

% Retained 55° C. [1]: 103%
% Retained 60° C. [1]: 84.2%
% Retained 65° C. [1]: 9%
EC50 [2]: 10.9 nM
B10: CD3B2051 N106H (scFv)
scFv: QVQLVQSGAEVKKPGSSVKVSCKASGYTFTRSTMHWVKQAPGQGLEWMGYINPSSAYTNYNQKFQGRVTLTADKSTSTAYMELSSLRSEDTAVYYCASPQVHYDYHGFPYWGQGTLVTVSSGGSEGKSSGSGSESKSTGGSEIVLTQSPATLSASPGERVTLSCSASSSVSYMNWYQQKPGQAPRRLIYDSSKLASGVPARFSGSGSGRDYTLTISSLEPEDFAVYYCQQWSRNPPTFGGGTKVEIK

EC50 [2]: 21.4 nM
B11: CD3B2089 G107Y (scFv)
scFv: QVQLVQSGAEVKKPGSSVKVSCKASGYTFTRSTMHWVRQAPGQGLEWMGYINPSSAYTNYAQKFQGRVTLTADKSTSTAYMELSSLRSEDTAVYYCASPQVHYDYNYFPYWGQGTLVTVSSGGSEGKSSGSGSESKSTGGSEIVLTQSPATLSASPGERVTLSCSASSSVSYMNWYQQKPGQAPRRWIYDSSKLASGVPARFSGSGSGRDYTLTISSLEPEDFAVYYCQQWSRNPPTFGGGTKVEIK

EC50 [2]: 17.4 nM
B13: CD3B2089 G107V (scFv)
scFv: QVQLVQSGAEVKKPGSSVKVSCKASGYTFTRSTMHWVRQAPGQGLEWMGYINPSSAYTNYAQKFQGRVTLTADKSTSTAYMELSSLRSEDTAVYYCASPQVHYDYNVFPYWGQGTLVTVSSGGSEGKSSGSGSESKSTGGSEIVLTQSPATLSASPGERVTLSCSASSSVSYMNWYQQKPGQAPRRWIYDSSKLASGVPARFSGSGSGRDYTLTISSLEPEDFAVYYCQQWSRNPPTFGGGTKVEIK

EC50 [2]: 30.8 nM
B16: CD3B2089 N106L (scFv)
scFv: QVQLVQSGAEVKKPGSSVKVSCKASGYTFTRSTMHWVRQAPGQGLEWMGYINPSSAYTNYAQKFQGRVTLTADKSTSTAYMELSSLRSEDTAVYYCASPQVHYDYLGFPYWGQGTLVTVSSGGSEGKSSGSGSESKSTGGSEIVLTQSPATLSASPGERVTLSCSASSSVSYMNWYQQKPGQAPRRWIYDSSKLASGVPARFSGSGSGRDYTLTISSLEPEDFAVYYCQQWSRNPPTFGGGTKVEIK

% Retained 55° C. [1]: 98.9%
% Retained 60° C. [1]: 33.1%
% Retained 65° C. [1]: 1.5%
EC50 [2]: 13.8 nM
B17: CD3B2051 N106G (scFv)
scFv: QVQLVQSGAEVKKPGSSVKVSCKASGYTFTRSTMHWVKQAPGQGLEWMGYINPSSAYTNYNQKFQGRVTLTADKSTSTAYMELSSLRSEDTAVYYCASPQVHYDYGGFPYWGQGTLVTVSSGGSEGKSSGSGSESKSTGGSEIVLTQSPATLSASPGERVTLSCSASSSVSYMNWYQQKPGQAPRRLIYDSSKLASGVPARFSGSGSGRDYTLTISSLEPEDFAVYYCQQWSRNPPTFGGGTKVEIK
